Test results: paper PMC5404317

B1: PINK1-V5 WT (V5-6xHis-tagged PINK1 wild type) [human] / TOM40 [human (endogenous in HeLa)] (parent)
chain 1: MAVRQALGRGLQLGRALLLRFTGKPGRAYGLGRPGPAAGCVRGERPGWAAGPGAEPRRVGLGLPNRLRFFRQSVAGLAARLQRQFVVRAWGCAGPCGRAVFLAFGLGLGLIEEKQAESRRAVSACQEIQAIFTQKSKPGPDPLDTRRLQGFRLEEYLIGQSIGKGCSAAVYEATMPTLPQNLEVTKSTGLLPGRGPGTSAPGEGQERAPGAPAFPLAIKMMWNISAGSSSEAILNTMSQELVPASRVALAGEYGAVTYRKSKRGPKQLAPHPNIIRVLRAFTSSVPLLPGALVDYPDVLPSRLHPEGLGHGRTLFLVMKNYPCTLRQYLCVNTPSPRLAAMMLLQLLEGVDHLVQQGIAHRDLKSDNILVELDPDGCPWLVIADFGCCLADESIGLQLPFSSWYVDRGGNGCLMAPEVSTARPGPRAVIDYSKADAWAVGAIAYEIFGLVNPFYGQGKAHLESRSYQEAQLPALPESVPPDVRQLVRALLQREASKRPSARVAANVLHLSLWGEHILALKNLKLDKMVGWLLQQSAATLLANRLTEKCCVETKMKMLFLANLECETLCQAALLLCSWRAAL
chain 2: MGNVLAASSPPAGPPPPPAPALVGLPPPPPSPPGFTLPPLGGSLGAGTSTSRSSERTPGAATASASGAAEDGACGCLPNPGTFEECHRKCKELFPIQMEGVKLTVNKGLSNHFQVNHTVALSTIGESNYHFGVTYVGTKQLSPTEAFPVLVGDMDNSGSLNAQVIHQLGPGLRSKMAIQTQQSKFVNWQVDGEYRGSDFTAAVTLGNPDVLVGSGILVAHYLQSITPCLALGGELVYHRRPGEEGTVMSLAGKYTLNNWLATVTLGQAGMHATYYHKASDQLQVGVEFEASTRMQDTSVSFGYQLDLPKANLLFKGSVDSNWIVGATLEKKLPPLPLTLALGAFLNHRKNKFQCGFGLTIG
B2: PINK1-V5 WT (V5-6xHis-tagged PINK1 wild type) [human] / CDC37 [human (endogenous in HeLa)] (parent)
chain 1: B1 chain 1
chain 2: MVDYSVWDHIEVSDDEDETHPNIDTASLFRWRHQARVERMEQFQKEKEELDRGCRECKRKVAECQRKLKELEVAEGGKAELERLQAEAQQLRKEERSWEQKLEEMRKKEKSMPWNVDTLSKDGFSKSMVNTKPEKTEEDSEEVREQKHKTFVEKYEKQIKHFGMLRRWDDSQKYLSDNVHLVCEETANYLVIWCIDLEVEEKCALMEQVAHQTIVMQFILELAKSLKVDPRACFRQFFTKIKTADRQYMEGFNDELEAFKERVRGRAKLRIEKAMKEYEEEERKKRLGPGGLDPVEVYESLPEELQKCFDVKDVQMLQDAISKMDPTDAKYHMQRCIDSGLWVPNSKASEAKEGEEAGPGDPLLEAVPKTGDEKDVSV

Legend:
[1] = variants of: B1; assay: co-immunoprecipitation (V5 agarose) with western blot quantification; conditions: HeLa cells, read off a plot
[2] = variants of: B2; assay: as above; conditions: HeLa cells, read off a plot

Variant	response (Tom40/V5 ratio) ([1]; 10 μM CCCP for 2 h)	response (Tom40/V5 ratio) ([1]; untreated (no CCCP))	response (cdc37/V5 ratio) ([2]; 10 μM CCCP for 2 h)	response (cdc37/V5 ratio) ([2]; untreated (no CCCP))
chain 1 I368N	0.32	0.42	–	–
chain 1 L347P	0.19	0.35	–	–
chain 1 I368N	–	–	0.66	0.61
chain 1 L347P	–	–	0.55	0.58
